These results are taken from patent US20100035825A1.

Assay [1] concerns the target purified recombinant procaspase 1 (human, Alexis Biochemicals) (human) (UniProt P29466). Description: co-immunoprecipitation of purified recombinant proteins (C/EBPβ peptides 200 µM), immunoblot, densitometry; reference C/EBPβ 216-253-HA-Ala217.
For assay [2], the target named is purified recombinant procaspase 8 (human, Alexis Biochemicals) (human) (UniProt Q14790). The assay is described as above.
Assay [3] deals with purified recombinant procaspase 1 (human, Alexis Biochemicals) (human) (UniProt P29466). The experiment in a line: co-immunoprecipitation of purified recombinant proteins (C/EBPβ peptides 200 µM), immunoblot, densitometry; reference C/EBPβ-HA-Ala217.

purified recombinant procaspase 8 (human, Alexis Biochemicals) (human), sequence (Q14790 217-479 limits assumed): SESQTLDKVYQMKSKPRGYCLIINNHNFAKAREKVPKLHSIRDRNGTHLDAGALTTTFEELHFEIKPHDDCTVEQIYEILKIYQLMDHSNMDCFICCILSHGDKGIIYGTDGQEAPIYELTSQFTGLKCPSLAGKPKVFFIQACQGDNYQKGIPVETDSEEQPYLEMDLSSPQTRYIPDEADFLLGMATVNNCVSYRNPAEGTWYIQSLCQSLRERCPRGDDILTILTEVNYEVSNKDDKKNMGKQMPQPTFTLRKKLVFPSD

For C/EBPβ 216-253-HA-Glu^217, the fold more co-immunoprecipitated than the Ala^217 peptides (densitometry) stood at 7 fold in assay [1] and 12 fold in assay [2]. “C/EBPβ-HA-Glu^217 (from UniProt P28033 1-296)”: the fold more co-immunoprecipitated than the Ala^217 peptides (densitometry) in assay [3] was 7 fold.
